Results published in patent publication US6716816.
Where no end group is shown, it is not given here. [ ]: non-standard residue; d: D form. Aib = CC(C)(N)C(=O)O

Biological target: T1, lecithin:cholesterol acyltransferase (LCAT), purified from human plasma (human, UniProt P04180 25-440)
T1 sequence (looked up): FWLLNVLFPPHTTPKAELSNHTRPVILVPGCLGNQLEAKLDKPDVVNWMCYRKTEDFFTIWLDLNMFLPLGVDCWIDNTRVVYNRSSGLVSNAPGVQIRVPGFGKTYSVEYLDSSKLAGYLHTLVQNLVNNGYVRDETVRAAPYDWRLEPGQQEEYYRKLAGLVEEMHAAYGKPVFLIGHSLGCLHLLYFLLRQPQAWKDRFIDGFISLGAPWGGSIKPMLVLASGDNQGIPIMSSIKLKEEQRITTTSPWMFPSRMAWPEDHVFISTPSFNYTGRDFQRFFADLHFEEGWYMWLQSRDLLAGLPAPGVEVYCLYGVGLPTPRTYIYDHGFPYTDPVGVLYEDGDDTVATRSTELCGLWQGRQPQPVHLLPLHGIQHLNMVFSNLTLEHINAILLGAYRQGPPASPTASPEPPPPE
Experiment: cell-based or functional assay

Binder: PVLDEFRDKLNE[Aib]LEALKQKLK [peptide 78]
- ACTIVITY (%) LCAT: 9%
